# How the values were obtained:
# Assay in all cases: Kinase Profiling Assay
# Conditions in all cases: 100 μM
# [1] = biological target: Arg (h) (Homo sapiens, UniProt P42684); assay type: biochemical
# Procedure: (§1) Every kinase activity measurement was conducted in duplicate.
# (§2) Specifically, in these assays, a positively charged substrate is phosphorylated with a radiolabeled phosphate group from an ATP if the kinase is not inhibited by an inhibitor peptide. The positively charged substrate then is attracted to a negatively charged filter membrane, quantified with a scintillation counter, and compared to a 100% activity control.
# (§3) In addition to determining the IC50 of the compound, the specificity of MK2 inhibitory peptides was assessed by examining activities of all 266 human kinases available for testing in the Millipore kinase profiling service (Table 1).
# [2] = biological target: T1, CDK6/cyclinD3 (h) (Homo sapiens, UniProt Q00534); assay type: biochemical
# T1 construct: purchased Millipore
# T1 sequence (Q00534 whole entry): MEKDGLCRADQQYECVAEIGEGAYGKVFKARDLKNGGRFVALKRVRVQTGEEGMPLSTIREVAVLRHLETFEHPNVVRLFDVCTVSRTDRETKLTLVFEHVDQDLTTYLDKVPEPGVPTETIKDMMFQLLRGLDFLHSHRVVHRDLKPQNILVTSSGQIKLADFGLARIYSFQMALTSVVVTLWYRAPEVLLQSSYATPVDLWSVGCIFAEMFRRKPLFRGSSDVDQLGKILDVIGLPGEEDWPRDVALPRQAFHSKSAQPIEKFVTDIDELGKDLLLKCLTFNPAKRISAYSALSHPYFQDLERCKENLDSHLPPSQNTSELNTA
# T1 sequence (P30281 whole entry partner): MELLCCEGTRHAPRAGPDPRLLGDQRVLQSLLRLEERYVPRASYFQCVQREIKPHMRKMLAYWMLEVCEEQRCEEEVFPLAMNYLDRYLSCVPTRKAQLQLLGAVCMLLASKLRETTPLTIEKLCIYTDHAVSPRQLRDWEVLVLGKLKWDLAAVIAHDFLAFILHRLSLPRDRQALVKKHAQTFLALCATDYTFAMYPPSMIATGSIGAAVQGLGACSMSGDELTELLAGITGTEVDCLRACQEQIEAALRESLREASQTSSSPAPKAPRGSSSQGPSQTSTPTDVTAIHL
# Procedure: as §1, §2, §3
# [3] = biological target: T2, DMPK (h) (Homo sapiens, UniProt Q09013); assay type: biochemical
# T2 construct: purchased Millipore
# T2 sequence (Q09013 1-629): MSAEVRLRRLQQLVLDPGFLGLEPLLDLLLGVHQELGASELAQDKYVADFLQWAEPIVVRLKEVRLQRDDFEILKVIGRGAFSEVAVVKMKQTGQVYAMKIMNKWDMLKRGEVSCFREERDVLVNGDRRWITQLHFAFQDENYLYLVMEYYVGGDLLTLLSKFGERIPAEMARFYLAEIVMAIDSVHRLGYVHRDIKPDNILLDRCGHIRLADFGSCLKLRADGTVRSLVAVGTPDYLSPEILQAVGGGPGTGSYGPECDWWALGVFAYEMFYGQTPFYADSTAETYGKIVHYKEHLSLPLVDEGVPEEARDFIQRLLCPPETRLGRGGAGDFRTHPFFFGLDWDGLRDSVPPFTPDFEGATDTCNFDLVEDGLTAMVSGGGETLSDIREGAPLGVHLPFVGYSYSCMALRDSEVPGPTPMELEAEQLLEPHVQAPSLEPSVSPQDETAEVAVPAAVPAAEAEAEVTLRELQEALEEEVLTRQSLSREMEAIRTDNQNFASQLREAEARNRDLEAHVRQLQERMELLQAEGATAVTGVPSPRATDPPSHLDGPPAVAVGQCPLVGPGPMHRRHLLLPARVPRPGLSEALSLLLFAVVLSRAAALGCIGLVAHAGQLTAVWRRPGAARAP
# Procedure: as §1, §2, §3
# [4] = biological target: T3, GRK6 (h) (Homo sapiens, UniProt P43250); assay type: biochemical
# T3 construct: purchased Millipore
# T3 sequence (P43250 whole entry): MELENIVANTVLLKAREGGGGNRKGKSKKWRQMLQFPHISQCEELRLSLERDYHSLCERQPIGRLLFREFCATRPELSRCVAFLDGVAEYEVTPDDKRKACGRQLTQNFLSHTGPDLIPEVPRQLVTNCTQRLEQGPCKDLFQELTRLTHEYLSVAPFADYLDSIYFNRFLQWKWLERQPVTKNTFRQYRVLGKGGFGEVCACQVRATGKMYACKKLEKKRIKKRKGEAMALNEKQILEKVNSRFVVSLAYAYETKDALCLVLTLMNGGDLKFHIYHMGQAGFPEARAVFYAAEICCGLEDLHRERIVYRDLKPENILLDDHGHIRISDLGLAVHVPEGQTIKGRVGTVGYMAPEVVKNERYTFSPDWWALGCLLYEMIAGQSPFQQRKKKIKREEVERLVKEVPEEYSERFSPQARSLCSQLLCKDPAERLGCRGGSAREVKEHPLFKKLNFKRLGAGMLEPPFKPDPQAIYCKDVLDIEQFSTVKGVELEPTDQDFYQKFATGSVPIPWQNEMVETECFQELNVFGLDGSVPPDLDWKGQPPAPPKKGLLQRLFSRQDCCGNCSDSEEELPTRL
# Procedure: as §1, §2, §3
# [5] = biological target: T4, GSK3β (h) (Homo sapiens, UniProt P49841); assay type: biochemical
# T4 construct: purchased Millipore
# T4 sequence (P49841 whole entry): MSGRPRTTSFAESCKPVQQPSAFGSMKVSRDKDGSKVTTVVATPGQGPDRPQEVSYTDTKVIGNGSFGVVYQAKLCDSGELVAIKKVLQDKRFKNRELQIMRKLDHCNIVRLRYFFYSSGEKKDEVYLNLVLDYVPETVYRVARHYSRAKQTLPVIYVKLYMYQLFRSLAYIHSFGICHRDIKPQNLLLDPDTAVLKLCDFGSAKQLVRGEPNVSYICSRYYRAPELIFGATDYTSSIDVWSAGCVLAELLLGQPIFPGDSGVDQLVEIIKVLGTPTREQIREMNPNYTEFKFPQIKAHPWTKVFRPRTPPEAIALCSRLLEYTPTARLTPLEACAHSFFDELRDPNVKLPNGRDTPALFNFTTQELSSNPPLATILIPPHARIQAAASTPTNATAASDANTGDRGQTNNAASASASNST
# Procedure: as §1, §2, §3
# [6] = biological target: JNK3 (h) (Homo sapiens, UniProt P53779); assay type: biochemical
# JNK3 (h), sequence (P53779 whole entry): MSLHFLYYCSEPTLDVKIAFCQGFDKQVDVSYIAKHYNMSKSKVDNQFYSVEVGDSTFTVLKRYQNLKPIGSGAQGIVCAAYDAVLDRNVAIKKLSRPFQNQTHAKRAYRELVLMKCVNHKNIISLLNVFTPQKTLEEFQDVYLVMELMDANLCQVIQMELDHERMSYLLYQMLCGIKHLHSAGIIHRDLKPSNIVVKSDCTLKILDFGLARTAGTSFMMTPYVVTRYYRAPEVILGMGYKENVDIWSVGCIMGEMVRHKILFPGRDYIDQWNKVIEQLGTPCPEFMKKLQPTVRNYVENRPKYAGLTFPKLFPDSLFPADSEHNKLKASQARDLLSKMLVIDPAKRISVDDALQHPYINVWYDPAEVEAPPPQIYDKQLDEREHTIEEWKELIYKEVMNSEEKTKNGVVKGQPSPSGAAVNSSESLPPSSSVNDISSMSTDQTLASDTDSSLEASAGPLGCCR
# Procedure: as §1, §2, §3
# [7] = biological target: Lyn (h) (Homo sapiens, UniProt P07948); assay type: biochemical
# Lyn (h), sequence (P07948 whole entry): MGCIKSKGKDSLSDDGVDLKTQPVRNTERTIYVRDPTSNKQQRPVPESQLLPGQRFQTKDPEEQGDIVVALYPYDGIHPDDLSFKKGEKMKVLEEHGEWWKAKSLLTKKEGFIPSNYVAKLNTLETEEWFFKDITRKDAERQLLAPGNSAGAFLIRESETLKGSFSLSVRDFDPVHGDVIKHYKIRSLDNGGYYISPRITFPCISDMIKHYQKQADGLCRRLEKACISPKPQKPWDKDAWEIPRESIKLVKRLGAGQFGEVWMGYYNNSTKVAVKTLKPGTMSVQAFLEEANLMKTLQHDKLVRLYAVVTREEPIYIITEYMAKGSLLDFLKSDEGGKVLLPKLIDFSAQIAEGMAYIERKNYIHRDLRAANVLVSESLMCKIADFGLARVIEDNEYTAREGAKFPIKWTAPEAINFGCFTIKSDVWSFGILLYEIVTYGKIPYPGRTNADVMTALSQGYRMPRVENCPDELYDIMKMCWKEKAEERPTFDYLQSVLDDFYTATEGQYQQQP
# Procedure: as §1, §2, §3
# [8] = biological target: Met(D1246H) (h) (Homo sapiens, UniProt P08581, D1228H); assay type: biochemical
# Procedure: as §1, §2, §3
# [9] = biological target: T5, PKBβ (h) (Homo sapiens, UniProt P31751); assay type: biochemical
# T5 construct: purchased Millipore
# T5 sequence (P31751 whole entry): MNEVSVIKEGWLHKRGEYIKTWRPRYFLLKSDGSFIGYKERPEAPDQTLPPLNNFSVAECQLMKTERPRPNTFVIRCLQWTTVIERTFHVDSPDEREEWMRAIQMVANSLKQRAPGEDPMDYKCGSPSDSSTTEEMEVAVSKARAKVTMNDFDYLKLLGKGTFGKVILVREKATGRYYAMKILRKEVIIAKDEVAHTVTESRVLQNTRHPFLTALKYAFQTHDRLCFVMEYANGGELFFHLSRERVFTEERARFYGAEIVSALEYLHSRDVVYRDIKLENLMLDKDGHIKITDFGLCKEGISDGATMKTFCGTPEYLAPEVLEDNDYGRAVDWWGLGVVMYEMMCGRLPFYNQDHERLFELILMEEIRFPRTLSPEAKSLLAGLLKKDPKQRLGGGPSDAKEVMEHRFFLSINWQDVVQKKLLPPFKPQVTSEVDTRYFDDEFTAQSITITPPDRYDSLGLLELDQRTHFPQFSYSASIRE
# Procedure: as §1, §2, §3
# [10] = biological target: PKCθ (h) (Homo sapiens, UniProt Q04759); assay type: biochemical
# PKCθ (h), sequence (Q04759 whole entry): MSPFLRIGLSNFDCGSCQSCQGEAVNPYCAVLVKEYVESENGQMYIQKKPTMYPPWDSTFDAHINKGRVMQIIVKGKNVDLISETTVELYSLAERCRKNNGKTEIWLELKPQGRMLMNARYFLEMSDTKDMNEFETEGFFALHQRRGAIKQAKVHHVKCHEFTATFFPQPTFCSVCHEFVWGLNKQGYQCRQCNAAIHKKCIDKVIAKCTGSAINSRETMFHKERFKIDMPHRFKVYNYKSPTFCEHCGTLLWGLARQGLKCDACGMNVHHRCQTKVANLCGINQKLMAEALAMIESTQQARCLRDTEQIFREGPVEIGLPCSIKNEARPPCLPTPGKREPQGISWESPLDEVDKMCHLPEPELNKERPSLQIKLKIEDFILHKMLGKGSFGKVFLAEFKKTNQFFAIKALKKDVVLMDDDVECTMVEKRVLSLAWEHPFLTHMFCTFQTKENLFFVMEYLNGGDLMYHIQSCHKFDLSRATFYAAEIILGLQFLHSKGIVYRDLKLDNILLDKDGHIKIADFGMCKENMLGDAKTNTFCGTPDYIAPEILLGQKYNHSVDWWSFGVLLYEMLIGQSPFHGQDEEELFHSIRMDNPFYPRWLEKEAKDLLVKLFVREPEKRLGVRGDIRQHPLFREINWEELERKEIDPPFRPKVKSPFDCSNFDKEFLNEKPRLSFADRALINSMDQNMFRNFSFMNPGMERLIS
# Procedure: as §1, §2, §3
# [11] = biological target: T6, TAO1 (h) (Homo sapiens, UniProt Q7L7X3); assay type: biochemical
# T6 sequence (Q7L7X3 1-1001): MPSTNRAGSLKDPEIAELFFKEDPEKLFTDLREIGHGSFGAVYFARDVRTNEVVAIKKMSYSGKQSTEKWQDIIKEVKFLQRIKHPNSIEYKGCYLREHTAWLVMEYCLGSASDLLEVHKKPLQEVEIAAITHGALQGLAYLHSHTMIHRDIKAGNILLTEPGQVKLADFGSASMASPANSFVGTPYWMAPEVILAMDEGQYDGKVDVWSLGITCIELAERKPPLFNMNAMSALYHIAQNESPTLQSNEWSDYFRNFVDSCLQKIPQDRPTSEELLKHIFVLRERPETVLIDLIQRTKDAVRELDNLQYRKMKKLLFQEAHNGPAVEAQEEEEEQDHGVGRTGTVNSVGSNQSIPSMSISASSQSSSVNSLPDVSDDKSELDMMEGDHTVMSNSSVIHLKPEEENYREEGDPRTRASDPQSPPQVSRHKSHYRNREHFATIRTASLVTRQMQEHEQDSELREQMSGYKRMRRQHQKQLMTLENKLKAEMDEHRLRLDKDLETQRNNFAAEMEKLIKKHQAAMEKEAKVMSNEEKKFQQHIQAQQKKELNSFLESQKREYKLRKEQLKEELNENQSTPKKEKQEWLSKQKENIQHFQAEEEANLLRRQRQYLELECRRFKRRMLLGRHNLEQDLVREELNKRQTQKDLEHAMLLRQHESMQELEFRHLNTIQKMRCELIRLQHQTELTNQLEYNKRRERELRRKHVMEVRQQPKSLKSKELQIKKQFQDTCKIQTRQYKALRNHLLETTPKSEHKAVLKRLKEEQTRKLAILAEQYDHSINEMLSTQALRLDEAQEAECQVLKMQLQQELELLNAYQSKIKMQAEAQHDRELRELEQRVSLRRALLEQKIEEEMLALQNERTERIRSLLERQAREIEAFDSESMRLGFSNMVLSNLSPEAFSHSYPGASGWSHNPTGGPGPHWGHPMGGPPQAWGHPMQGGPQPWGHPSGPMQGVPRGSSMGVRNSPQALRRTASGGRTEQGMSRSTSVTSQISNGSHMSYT
# Procedure: as §1, §2, §3
# [12] = test system: CaMKI (h); assay type: biochemical, human
# Procedure: as §1, §2, §3
# [13] = test system: MLCK (h); assay type: biochemical, human
# Procedure: as §1, §2, §3
# [14] = test system: SGK (h); assay type: biochemical, human
# Procedure: as §1, §2, §3
# Arg (h), sequence (P42684 whole entry): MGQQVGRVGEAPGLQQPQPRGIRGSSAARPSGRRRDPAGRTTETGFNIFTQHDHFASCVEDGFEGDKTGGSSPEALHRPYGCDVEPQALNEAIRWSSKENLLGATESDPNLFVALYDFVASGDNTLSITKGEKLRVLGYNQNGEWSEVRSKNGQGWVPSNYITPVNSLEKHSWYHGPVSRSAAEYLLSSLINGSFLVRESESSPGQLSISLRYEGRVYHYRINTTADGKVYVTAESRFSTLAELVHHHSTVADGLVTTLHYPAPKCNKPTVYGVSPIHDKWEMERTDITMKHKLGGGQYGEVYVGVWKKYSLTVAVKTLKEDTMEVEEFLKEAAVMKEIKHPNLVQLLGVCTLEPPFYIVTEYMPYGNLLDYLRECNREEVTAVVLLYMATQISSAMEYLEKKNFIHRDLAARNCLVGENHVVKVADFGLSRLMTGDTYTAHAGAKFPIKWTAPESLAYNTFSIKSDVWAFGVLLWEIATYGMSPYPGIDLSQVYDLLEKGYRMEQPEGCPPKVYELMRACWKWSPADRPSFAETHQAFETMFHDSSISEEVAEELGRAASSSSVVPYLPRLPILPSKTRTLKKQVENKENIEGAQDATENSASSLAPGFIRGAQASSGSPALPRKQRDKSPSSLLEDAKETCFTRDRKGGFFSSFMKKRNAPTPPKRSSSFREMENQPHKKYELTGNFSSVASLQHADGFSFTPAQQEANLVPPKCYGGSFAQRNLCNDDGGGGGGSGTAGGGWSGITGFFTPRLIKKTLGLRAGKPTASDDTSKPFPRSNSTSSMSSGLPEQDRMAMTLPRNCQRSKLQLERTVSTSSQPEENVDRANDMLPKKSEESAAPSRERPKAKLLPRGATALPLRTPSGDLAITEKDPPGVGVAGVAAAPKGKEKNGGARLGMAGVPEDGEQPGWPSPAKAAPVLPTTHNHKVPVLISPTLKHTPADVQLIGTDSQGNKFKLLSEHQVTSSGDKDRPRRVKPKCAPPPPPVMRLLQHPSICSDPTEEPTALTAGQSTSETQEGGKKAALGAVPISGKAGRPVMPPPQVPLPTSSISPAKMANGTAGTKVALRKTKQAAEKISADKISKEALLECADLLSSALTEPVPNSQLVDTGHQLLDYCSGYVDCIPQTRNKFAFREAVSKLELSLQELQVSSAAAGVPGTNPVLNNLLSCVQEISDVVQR
Sequence,% activity [1],% activity [2],% activity [3],% activity [4],% activity [5],% activity [6],% activity [7],% activity [8],% activity [9],% activity [10],% activity [11],% activity [12],% activity [13],% activity [14]
FAKLAARLYRKALARQLGVAA [MMI-0300],72%,86%,59%,147%,205%,89%,69%,125%,84%,88%,82%,1%,2%,48%
HRRIKAWLKKIKALARQLGVAA (Mammalian) [MMI-0500],22%,23%,12%,174%,238%,171%,31%,150%,21%,62%,24%,−1%,0%,2%
KAFAKLAARLYRKALARQLGVAA [MMI-0400],84%,85%,54%,141%,202%,70%,3%,68%,98%,76%,73%,0%,1%,54%
YARAAARQARAKALNRQLGVA (Mammalian) [MMI-0200],82%,100%,66%,132%,132%,90%,98%,139%,250%,101%,–,21%,103%,115%
